According to publication PMC3631189:
Each block holds one substance with its values, some of them ahead of it.

Assays:
Test in all cases: SEC; gel permeation chromatography on Superdex-200, purified receptors-Fc loaded in 400 µl, eluted in PBS, absorbance at 280 nm
hTACI-Fc = target: hTACI-Fc
hFn14-Fc (human) = hFn14-Fc (human) (UniProt Q9NP84)
atacicept = target: atacicept

stoichiometry N (hTACI-Fc): 2
Substance: hTACI-Fc (Fc fusion)

stoichiometry N (hFn14-Fc (human)): 2
Substance: hFn14-Fc (from UniProt Q9NP84 28-80) (Fc fusion)

stoichiometry N (atacicept): 2
Substance: atacicept (Fc fusion)
